Measured values from publication PMC3441419, “The Redox-Sensing Regulator Rex Modulates Central Carbon Metabolism, Stress Tolerance Response and Biofilm Formation by Streptococcus mutans”.

T1: rRex (Streptococcus mutans UA159?) (UniProt Q8DU91)
T1 sequence: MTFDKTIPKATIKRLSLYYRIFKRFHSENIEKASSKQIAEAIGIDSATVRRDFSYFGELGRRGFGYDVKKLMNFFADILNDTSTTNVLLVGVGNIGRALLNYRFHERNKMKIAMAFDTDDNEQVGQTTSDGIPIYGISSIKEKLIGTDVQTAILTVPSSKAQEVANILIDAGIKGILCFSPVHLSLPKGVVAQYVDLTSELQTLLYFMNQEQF

T2: rRex (UniProt Q8DU91 1-213)
T2 sequence: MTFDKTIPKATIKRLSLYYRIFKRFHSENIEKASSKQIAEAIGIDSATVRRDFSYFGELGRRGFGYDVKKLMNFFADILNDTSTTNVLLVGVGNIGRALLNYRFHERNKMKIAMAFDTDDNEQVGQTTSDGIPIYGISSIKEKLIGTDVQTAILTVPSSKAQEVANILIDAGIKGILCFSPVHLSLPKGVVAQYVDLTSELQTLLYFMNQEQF

B1: mutated adhE Rex-box oligo m148Fw/m148Rv (dsDNA)
DNA 1: ATTTTTAACAGTAAAGGGTTACAATGACAAG
DNA 2: CTTGTCATTGTAACCCTTTACTGTTAAAAAT
B2: adhE Rex-box oligo 148Fw/148Rv (dsDNA)
DNA 1: ATTTTTTTGTGAAAAGGGTTACAATGACAAG
DNA 2: CTTGTCATTGTAACCCTTTTCACAAAAAAAT
B3: adhE1 cold oligo (dsDNA)
DNA 1: TTTTGTGAAAAGGGTTACAATG
DNA 2: CATTGTAACCCTTTTCACAAAA

What was measured:
[1] = target: T1, rRex (Streptococcus mutans UA159?); test: EMSA; settings: 20 mM Tris pH 8.0, 1 mM EDTA, 75 mM KCl, 2 mM DTT, 10% glycerol, 10 min at room temperature (+15 min after NAD+/NADH); 5% native PAGE
rRex [2] = target: T2, rRex; test: EMSA; 20 mM Tris pH 8.0, 1 mM EDTA, 75 mM KCl, 2 mM DTT, 10% glycerol, 10 min at room temperature (+15 min after NAD+/NADH); 5% native PAGE; settings: protein: recombinant; tags: N-terminal His (pQE30); blunt
rRex [3] = target: T2, rRex; test: competition; unlabeled competitor against biotinylated adhE1, dose-dependent; 20 mM Tris pH 8.0, 1 mM EDTA, 75 mM KCl, 2 mM DTT, 10% glycerol, 10 min at room temperature (+15 min after NAD+/NADH); 5% native PAGE; settings: protein: recombinant; tags: N-terminal His (pQE30); blunt

Molecule | binding [1] | binding result (rRex [2]) | further results
ACAAGCCCATACTGAGTTTGGACATTAAAGCTCAGCAGGGCTATGATTATGATGTCATTATCATCGGCGGCGGTGTTTCAGGTGTGACTCTAGCC (double strand) [gshR promoter] | binds | – | –
ATGACAGTTCCTCGCATTTTTAATTTATGTTATAATTATAAGTGAAAAACATCACATTTGAAAAGCCTTACAAATATCTTAAAAAATGACTTTTTATGACTTTTAGATGGGAGGTTTGCTTAGT (double strand) [frdC promoter] | binds | – | –
B1 | – | no binding | –
B2 | – | binds | –
B3 | – | – | binding result (rRex [3]): binds
